Results as given in IntAct's records for PubMed 22922713.

B1: WD repeat-containing protein 19 (Mus musculus), Q3UGF1 (parent)
chain: MKRVFSLLEKSWLGAPIQFAWQKSSGNYLAVTGADYIVKIFDRHGQKRSEISLPGNCVTMDWDKDGDILAVIAEKSSCIYLWDANTNKTSQLDNGMRDQMSFLLWSKIGSFLAVGTIKGNLLIYNHQTSRKIPVLGKHTKKITCGCWNSENLLALGGEDKMITVSNQEGDTIRQTPVKSEPSDIKFSMSKTDERISSAENTISAVVGKKMLFLFHLNEPDNPVDLEFQQAYGNIVCYSWYGDGYIMIGFSRGTFLAISTHFPEVGQEIFKARDHKDNLTSVALSQTLNKAATCGDNCIKIHDLTELRDMYAIINLDDENKGLGTLSWTDDGQLLALSTQRGSLHVFLTKLPILGDACHTRIAYLTSLLEVTVANLIEGEPPITVSVDVEPTFVAVGLYHLAVGMNNRAWFYVLGENVVKKLKDVEYLGTVASICLHSDYAAALFEGKIQLHLIENEMLDAQEERETRLFPAVDDKCRILCHALTSDFLIYGTDTGIIHYFFIEDWQFVNDYRHPVGVKKLFPDPNGTRLVFIDEKSDGFVYCPVNDATYEIPDFSPTIKGVLWENWPMDKGVFIAYDDDKVYTYAFHKDTIQGSKVILAGSTKLPFSHKPLLLYNGELTCQTQSGKINSIYLSTHSFLGSMKDTEPTDLRQMLTQTLLLKRFSDAWDICKMLNDRTSWSELAKACLHHMEVEFAIRVSRTMGDVGTVMSLEQIKGIEDYNLLAGHLAMFTNDFNLAQDLYLASNCPVAALEMRRDLQHWDSALQLAKRLAPDQIPFISKEYAIQLEFTGDYVNALAHYEKGITGDNKEHDEVCLAGVAQMSIRMGDIRRGANQALKHPSRVLKRDCGAILENMKQFSEAAQLYEKGQYYDRAASVYIRCKNWAKVGELLPHVSSPKIHLQYAKAKEADGRYKEAVVAYENAKQWNSVIRIYLDHLNNPEKAVSIVRETQSLDGAKMVARFFLQLGDYGSAIQFLVLSKCNNEAFTLAQQHNKMEIYADIIGAEDTTNEDYQSIALYFEGEKRHFQAGKFFLLCGQYSRALKHFLKCPSSEDNVAIEMAIETVGQAKDELLTNQLIDHLMGESDGMPKDAKYLFRLYMALKQYREAARTAIIIAREEQSAGNYRNAHDVLFSMYAELKAQKIKIPSEMATNLMILHSYILVKIHVKSGDHMKGARMLIRVANNISKFPSHIVPILTSTVIECHRAGLKNSAFSFAAMLMRPEYRNKIDAKYKKKIEAMVRRPDTSETEEATTPCPFCQFLLPECELLCPGCKNNIPYCIATGRHMLKDDWTMCPHCGFPALYSEFKILLNSESTCPMCSERLNSSQLKKITDCSQYLRTEME
partner: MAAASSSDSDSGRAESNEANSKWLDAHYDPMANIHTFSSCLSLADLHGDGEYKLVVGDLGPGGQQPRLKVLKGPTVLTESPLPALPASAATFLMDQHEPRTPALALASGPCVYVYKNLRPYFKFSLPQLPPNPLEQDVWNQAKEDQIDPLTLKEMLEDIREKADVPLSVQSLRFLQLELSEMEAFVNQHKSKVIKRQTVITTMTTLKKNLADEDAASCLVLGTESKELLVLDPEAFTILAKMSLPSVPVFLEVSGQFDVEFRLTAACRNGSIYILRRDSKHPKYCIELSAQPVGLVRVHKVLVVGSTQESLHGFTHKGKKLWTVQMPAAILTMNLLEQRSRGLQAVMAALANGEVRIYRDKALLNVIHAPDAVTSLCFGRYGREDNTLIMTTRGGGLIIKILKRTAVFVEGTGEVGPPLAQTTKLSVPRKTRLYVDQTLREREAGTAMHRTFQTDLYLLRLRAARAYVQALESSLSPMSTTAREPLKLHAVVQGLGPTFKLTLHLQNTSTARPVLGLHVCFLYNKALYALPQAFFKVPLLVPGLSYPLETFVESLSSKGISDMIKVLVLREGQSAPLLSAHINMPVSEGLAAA

Variants of: B1
Details: with bbs1_mouse Bbs1, Q3V3N7

Row | effect of a mutation on the interaction | Variant
1 | decreasing interaction strength | G341R
